Experimental data: patent US20180273621A1

Columns and labels:
[1] = target: Human FcγRIIA, recombinantly expressed extracellular domain (human) (UniProt P12318); test: BIAcore 3000, IgG immobilized, FcγR extracellular domain injected, equilibrium fit to a 1:1 binding isotherm
[2] = target: Human FcγRIIB, recombinantly expressed extracellular domain (human) (UniProt P31994); test: as above
[3] = target: Human FcγRIIIA (V158), recombinantly expressed extracellular domain (human) (UniProt P08637); test: as above
Human FcγRIIIA (V158), recombinantly expressed extracellular domain (human), sequence (P08637 17-208 F176V): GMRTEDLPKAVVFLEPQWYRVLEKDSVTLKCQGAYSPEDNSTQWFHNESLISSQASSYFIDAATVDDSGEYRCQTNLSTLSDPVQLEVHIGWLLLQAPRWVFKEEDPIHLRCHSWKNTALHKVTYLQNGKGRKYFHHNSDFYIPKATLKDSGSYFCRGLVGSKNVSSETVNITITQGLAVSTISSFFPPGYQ

[4] = target: Mouse FcγRIIB, recombinantly expressed extracellular domain (mouse) (UniProt P08101); test: as above
Mouse FcγRIIB, recombinantly expressed extracellular domain (mouse), sequence (P08101 30-210): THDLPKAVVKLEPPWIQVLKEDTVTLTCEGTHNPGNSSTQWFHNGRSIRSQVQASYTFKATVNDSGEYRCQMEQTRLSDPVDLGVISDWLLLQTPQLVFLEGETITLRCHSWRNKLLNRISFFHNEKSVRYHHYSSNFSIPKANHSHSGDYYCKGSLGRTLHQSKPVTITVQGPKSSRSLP

[5] = target: Mouse FcγRIII, recombinantly expressed extracellular domain (mouse) (UniProt P08508); test: as above
Mouse FcγRIII, recombinantly expressed extracellular domain (mouse), sequence (P08508 31-215): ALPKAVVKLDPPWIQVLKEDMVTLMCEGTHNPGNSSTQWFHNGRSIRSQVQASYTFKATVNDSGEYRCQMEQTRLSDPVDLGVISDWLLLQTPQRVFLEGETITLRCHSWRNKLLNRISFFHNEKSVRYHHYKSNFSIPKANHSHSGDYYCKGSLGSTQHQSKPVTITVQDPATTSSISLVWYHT

[6] = target: Mouse FcγRIV, recombinantly expressed extracellular domain (mouse); test: as above
Mouse FcγRIV, recombinantly expressed extracellular domain (mouse), sequence (A0A0B4 entry or part of it limits assumed): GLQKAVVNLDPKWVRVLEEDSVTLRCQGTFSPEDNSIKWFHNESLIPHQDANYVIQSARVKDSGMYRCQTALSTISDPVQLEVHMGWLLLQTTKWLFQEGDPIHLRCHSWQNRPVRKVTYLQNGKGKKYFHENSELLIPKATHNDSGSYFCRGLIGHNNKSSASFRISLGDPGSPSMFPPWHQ

[7] = target: Human FcγRI, recombinantly expressed extracellular domain (human) (UniProt P12314); test: BIAcore 3000, IgG immobilized, FcγR extracellular domain injected, equilibrium fit to a 1:1 binding isotherm; Fc variant 16C4-235F
Human FcγRI, recombinantly expressed extracellular domain (human), sequence (P12314 16-292): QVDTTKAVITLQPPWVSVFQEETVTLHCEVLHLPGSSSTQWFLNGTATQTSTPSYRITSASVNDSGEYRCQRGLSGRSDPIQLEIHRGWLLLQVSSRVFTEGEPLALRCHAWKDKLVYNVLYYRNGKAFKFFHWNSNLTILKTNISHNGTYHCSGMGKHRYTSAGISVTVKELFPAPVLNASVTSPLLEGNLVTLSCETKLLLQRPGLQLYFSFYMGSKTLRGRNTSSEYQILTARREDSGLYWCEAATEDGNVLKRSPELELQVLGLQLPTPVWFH

[8] = target: Human FcγRI, recombinantly expressed extracellular domain (human) (UniProt P12314); test: BIAcore 3000, IgG immobilized, FcγR extracellular domain injected, equilibrium fit to a 1:1 binding isotherm; 16C4, parent Fc (no Fc substitution)
[9] = target: Human FcγRI, recombinantly expressed extracellular domain (human) (UniProt P12314); test: BIAcore 3000, IgG immobilized, FcγR extracellular domain injected, equilibrium fit to a 1:1 binding isotherm; Fc variant 16C4-235Y

Human FcγRIIB, recombinantly expressed extracellular domain (human), sequence (P31994 43-217): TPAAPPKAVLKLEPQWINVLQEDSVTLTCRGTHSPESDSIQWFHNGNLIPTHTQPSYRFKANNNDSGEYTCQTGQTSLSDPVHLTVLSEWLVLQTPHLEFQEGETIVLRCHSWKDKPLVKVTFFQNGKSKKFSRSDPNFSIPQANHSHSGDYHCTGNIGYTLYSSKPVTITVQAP
Human FcγRIIA, recombinantly expressed extracellular domain (human), sequence (P12318 34-217): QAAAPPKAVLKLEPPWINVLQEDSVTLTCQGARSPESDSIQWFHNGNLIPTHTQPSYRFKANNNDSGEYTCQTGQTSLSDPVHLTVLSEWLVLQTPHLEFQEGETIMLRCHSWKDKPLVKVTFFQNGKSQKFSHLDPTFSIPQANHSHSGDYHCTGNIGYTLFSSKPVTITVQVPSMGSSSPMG

A Kd [1] of 6.36 µM, a Kd [2] of 6.81 µM and a Kd [3] of 4.61 µM were found for “16C4 Fc variant antibody comprising the L234F/L235F/P331S amino acid substitutions” in this work. The Kd [4] was 2.82 µM, the Kd [5] was 10.9 µM and the Kd [6] was 11.1 µM. The Kd [7] was 1.53 µM.

A Kd [2] of 14.5 µM, a Kd [3] of 0.574 µM and a Kd [4] of 1.47 µM were found for “16C4 affinity matured anti-CD19 IgG antibody” in this work. It also gave a Kd [5] of 6.36 µM, a Kd [6] of 0.329 µM and a Kd [8] of 0.019 µM.

A Kd [1] of 6.98 µM, a Kd [2] of 17.1 µM and a Kd [3] of 5.14 µM were found for “16C4 Fc variant antibody comprising the L234F/L235Y/P331S amino acid substitutions” in this work. It also gave a Kd [4] of 2.67 µM, a Kd [5] of 9.24 µM and a Kd [9] of 8.65 µM.
